Results from doi:10.1101/2020.12.29.424679 (bioRxiv, 2020).

B3: Armadillo domain of HSF2BP (ARM, aa 122 to aa 334) (domain or fragment)
chain: EMGAAACTLLWGVSSSEEVVKAILGGDKALKFFSITGQTMESFVKSLDGDVQELDSDESQFVFALAGIVTNVAAIACGREFLVNSSRVLLDTILQLLGDLKPGQCTKLKVLMLMSLYNVSINLKGLKYISESPGFIPLLWWLLSDPDAEVCLHVLRLVQSVVLEPEVFSKSASEFRSSLPLQRILAMSKSRNPRLQTAAQELLEDLRTLEHNV

Tests used:
[1] = molecular target: T1, Human full length HSF2BP WT (human, UniProt O75031 1-334); assay: ITC
T1 sequence: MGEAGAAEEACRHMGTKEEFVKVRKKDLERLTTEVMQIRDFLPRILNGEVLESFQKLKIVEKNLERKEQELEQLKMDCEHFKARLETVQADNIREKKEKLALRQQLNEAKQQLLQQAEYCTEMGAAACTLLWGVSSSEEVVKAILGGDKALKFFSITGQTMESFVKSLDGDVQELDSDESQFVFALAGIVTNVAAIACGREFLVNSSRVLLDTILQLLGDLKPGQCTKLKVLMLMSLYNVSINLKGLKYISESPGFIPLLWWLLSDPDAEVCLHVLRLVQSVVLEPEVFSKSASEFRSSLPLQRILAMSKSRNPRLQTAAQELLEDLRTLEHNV

[2] = molecular target: Mouse HSF2BP-GFP (mouse (knock-in allele in mES cells)) (UniProt Q9D4G2); assay: co-IP
[3] = molecular target: B3; assay: ITC
[4] = molecular target: the molecule itself; assay: SEC-MALS + other: SEC-SAXS
[5] = molecular target: the molecule itself; assay: SEC-MALS
[6] = molecular target: Mouse BRCA2-GFP Δ12 (mouse (knock-in allele in mES cells)) (UniProt P97929); assay: co-IP
Mouse BRCA2-GFP Δ12 (mouse (knock-in allele in mES cells)), sequence (P97929 whole entry, stated change not applied): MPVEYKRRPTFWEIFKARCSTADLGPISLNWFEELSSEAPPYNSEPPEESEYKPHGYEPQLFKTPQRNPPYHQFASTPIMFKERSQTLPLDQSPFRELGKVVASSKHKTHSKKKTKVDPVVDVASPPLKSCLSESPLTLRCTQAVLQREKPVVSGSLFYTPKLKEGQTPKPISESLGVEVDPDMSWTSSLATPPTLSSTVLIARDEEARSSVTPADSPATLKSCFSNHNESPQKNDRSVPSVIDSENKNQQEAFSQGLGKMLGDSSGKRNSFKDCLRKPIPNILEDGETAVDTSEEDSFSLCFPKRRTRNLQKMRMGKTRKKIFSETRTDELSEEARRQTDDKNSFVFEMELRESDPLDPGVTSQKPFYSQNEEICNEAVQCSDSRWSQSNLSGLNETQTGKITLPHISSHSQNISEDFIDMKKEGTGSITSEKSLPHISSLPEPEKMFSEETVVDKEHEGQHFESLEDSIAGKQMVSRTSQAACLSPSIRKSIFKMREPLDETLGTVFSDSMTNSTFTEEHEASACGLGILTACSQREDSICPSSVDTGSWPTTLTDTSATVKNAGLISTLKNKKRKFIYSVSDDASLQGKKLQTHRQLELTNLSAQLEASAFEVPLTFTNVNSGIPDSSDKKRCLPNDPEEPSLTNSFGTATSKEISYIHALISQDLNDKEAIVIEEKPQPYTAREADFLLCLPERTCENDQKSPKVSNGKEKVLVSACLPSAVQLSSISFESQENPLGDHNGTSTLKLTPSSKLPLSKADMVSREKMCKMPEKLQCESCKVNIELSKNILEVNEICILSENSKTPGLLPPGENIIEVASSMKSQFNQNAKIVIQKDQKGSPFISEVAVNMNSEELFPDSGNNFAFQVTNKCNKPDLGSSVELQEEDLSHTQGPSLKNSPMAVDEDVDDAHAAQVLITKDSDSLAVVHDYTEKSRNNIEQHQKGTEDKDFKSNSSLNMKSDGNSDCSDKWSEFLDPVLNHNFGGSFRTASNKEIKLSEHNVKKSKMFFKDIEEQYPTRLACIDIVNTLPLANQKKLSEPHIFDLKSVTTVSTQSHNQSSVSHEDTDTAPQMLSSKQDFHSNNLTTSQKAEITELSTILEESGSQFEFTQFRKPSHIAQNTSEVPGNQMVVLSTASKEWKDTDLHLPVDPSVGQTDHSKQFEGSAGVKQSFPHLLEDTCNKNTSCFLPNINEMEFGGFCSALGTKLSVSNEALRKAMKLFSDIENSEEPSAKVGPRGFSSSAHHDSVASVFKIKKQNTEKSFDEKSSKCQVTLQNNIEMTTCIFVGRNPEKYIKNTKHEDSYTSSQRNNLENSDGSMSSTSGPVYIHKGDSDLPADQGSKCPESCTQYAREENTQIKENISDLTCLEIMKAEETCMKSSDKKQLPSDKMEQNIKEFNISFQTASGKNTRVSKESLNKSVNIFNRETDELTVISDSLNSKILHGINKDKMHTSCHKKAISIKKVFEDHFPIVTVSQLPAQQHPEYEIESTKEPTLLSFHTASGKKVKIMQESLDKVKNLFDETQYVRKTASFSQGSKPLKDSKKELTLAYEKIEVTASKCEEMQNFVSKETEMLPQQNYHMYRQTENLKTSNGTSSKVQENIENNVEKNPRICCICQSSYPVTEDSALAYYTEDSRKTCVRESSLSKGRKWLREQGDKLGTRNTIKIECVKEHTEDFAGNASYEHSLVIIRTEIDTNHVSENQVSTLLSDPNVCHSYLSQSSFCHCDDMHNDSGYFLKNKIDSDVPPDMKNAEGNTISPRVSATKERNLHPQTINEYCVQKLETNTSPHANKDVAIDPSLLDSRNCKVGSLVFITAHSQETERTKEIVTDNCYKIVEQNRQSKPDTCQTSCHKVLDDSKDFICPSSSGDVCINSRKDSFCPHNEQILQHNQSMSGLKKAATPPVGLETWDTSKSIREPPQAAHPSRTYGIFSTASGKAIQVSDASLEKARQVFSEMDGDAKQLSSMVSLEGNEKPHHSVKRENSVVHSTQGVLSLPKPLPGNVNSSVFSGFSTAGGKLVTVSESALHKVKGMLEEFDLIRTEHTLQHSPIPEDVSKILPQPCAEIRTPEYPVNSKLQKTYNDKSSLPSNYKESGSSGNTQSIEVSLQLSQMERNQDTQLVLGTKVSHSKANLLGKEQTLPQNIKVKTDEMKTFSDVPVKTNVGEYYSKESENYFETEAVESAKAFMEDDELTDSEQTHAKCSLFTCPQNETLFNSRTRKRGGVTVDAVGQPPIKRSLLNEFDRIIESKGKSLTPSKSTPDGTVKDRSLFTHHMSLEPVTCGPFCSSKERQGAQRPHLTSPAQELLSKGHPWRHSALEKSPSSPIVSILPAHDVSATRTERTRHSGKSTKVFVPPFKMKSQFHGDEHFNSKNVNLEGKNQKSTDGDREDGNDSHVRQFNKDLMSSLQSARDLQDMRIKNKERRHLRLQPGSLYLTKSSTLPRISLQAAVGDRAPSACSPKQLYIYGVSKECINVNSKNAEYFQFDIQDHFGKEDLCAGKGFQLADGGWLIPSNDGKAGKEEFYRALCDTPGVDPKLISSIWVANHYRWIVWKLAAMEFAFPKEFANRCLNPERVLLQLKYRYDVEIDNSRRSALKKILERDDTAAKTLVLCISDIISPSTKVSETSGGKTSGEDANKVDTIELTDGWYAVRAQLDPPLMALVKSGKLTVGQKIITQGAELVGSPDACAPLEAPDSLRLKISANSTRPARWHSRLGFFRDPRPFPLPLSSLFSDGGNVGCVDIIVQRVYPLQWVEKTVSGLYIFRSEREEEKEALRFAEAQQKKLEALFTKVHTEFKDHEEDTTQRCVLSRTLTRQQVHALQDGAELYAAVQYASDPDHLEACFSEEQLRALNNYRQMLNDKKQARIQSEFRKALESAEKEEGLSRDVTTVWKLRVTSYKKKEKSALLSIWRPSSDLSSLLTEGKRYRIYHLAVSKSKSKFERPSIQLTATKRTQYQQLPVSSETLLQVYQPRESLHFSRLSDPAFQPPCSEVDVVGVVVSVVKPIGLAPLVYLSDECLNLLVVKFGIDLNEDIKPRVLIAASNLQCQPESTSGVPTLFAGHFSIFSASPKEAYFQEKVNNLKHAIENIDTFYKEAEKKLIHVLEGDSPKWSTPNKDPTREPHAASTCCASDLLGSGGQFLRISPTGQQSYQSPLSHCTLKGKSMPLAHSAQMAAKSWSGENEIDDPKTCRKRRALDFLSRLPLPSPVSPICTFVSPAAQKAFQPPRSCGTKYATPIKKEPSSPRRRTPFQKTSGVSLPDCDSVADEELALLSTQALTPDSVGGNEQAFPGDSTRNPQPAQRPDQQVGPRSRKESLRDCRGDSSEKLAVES

## BRCA2 peptide F15XΔ12 (D2312-E2342)
[1]
  fold weaker affinity than HSF2BP for F0: 1000 fold
  stoichiometry N: 1

## Mouse BRCA2-Δ12 (from UniProt P97929 1-3329) (natural protein)
[2]
  percent loss of co-precipitation against wild-type BRCA2: 97 to 99%

B1: Human BRCA2 fragment F15X (N2291-Q2342) (peptide)
chain: NEFDRIIENQEKSLKASKSTPDGTIKDRRLFMHHVSLEPITTVPFRTTKERQ
[3]
  Kd: ~10 nM
  fold higher affinity than ARM for F0: ~3 fold

B2: Human BRCA2 fragment FNMR (S2252-Q2342) (domain or fragment)
chain: SLFTCPENEEMVLSNSRIGKRRGEPLILVGEPSIKRNLLNEFDRIIENQEKSLKASKSTPDGTIKDRRLFMHHVSLEPITTVPFRTTKERQ
[3]
  Kd: ~10 nM
  fold higher affinity than ARM for F0: ~3 fold

## B3
[4]
  stoichiometry N: 4
[5]
  stoichiometry N: 2

B4: Human BRCA2 fragment F0 (S2213-Q2342, C2332T) (domain or fragment)
chain: STYSKDSENYFETEAVEIAKAFMEDDELTDSKLPSHATHSLFTCPENEEMVLSNSRIGKRRGEPLILVGEPSIKRNLLNEFDRIIENQEKSLKASKSTPDGTIKDRRLFMHHVSLEPITTVPFRTTKERQ
[1]
  Kd: 1 nM
  fold tighter binding than ARM to F0: ~25 fold
  stoichiometry N: 0.5
[3]
  stoichiometry N: 0.5

B5: Mouse HSF2BP, natively expressed in ES cells (natural protein)
chain: MAATVGDGSGTEEACRNMESKEEFVKVRKKDLERLTTEVMQIRDFLPRILNGELLESFQKLKMVEKNLERKEQELEQLIMDREHFKARLETAQADSGREKKEKLALRQQLNEAKQQLLQQAEYCTQMGAVTCTLLWGVSSSEEVVKTILGGDKALKFFNITGQTMESFVKSLDGDVKEVDSDENQFVFALAGIVTNVAAIACGREFLVNSSRVLLDTMLQLLGDLKPGQCTKLKVLMLMSLYNVSINSKGLKYITESPGFIPLLWWLLSDPDAEVCLHTLRLIQSVVLEPDVFSKVASELQSSLPLQRILAMSKSRNSHLQSAAQELLEDLRALDCNV
[6]
  percent loss of co-precipitation against full-length BRCA2-GFP: 95%
